{"source": "paper PMC9728385", "molecular_target": "TtCST WT (Ctc1-Stn1-Ten1, co-expressed with p50) (Tetrahymena, UniProt A0PGB2;Q6JXI5;D2CVN7;D2CVN8 1-622;1-373;1-164;1-422)", "sequence (A0PGB2 whole entry, chain 1 of 4)": "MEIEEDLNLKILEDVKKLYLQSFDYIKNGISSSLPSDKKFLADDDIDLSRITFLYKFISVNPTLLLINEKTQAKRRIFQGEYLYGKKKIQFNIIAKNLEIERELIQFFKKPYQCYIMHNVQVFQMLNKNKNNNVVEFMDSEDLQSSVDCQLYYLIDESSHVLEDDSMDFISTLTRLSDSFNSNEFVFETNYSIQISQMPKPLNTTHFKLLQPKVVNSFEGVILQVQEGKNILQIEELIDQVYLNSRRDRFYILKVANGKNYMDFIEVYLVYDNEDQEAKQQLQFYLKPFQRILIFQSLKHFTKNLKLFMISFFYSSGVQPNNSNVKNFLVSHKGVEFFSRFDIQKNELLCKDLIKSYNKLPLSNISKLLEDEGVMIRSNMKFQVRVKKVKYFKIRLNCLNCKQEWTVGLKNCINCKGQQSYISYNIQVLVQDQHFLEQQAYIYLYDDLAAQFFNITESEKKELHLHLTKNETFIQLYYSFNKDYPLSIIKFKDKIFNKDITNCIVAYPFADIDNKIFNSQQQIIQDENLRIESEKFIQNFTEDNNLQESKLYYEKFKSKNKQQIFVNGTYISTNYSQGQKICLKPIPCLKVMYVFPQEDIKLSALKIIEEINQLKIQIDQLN", "sequence (Q6JXI5 whole entry, chain 2 of 4)": "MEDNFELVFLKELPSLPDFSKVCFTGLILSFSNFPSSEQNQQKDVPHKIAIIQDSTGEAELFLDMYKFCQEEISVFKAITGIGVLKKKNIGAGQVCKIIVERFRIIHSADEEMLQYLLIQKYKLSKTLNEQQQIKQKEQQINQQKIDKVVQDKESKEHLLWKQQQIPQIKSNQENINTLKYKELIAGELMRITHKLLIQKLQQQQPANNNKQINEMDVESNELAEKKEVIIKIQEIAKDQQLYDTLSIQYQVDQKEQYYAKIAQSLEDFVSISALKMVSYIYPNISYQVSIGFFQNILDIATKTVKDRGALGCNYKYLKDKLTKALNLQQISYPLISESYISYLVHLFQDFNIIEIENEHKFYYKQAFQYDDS", "sequence (D2CVN7 whole entry, chain 3 of 4)": "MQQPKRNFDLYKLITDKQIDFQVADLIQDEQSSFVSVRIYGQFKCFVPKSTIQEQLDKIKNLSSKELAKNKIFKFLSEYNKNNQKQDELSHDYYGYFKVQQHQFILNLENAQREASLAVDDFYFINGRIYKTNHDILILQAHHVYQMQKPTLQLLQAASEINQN", "sequence (D2CVN8 whole entry, chain 4 of 4)": "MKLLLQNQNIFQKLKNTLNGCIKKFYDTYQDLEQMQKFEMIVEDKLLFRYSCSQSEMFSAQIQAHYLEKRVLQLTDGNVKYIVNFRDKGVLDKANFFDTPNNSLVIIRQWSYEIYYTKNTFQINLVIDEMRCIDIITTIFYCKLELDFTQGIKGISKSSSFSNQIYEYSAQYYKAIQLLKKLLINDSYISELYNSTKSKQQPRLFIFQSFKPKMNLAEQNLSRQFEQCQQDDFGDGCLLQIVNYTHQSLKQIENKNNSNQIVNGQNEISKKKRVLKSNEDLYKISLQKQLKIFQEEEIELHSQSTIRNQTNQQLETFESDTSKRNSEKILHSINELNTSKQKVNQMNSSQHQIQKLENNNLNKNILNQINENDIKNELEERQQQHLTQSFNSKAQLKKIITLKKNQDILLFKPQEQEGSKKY", "assay": "EMSA"}
{"binder": "GTTGGGGTTGGGGTTGGGGTTGGGGTTGGG (ssDNA)", "note": "[d(GTTGGG)5]", "values": [{"measurement": "Kd", "value": 180, "unit": "nM"}]}
